{"source": "patent US20120093724", "key": {"[1]": {"biological_target": "semenogelin I (UniProt P04279)", "sequence (P04279 24-462)": "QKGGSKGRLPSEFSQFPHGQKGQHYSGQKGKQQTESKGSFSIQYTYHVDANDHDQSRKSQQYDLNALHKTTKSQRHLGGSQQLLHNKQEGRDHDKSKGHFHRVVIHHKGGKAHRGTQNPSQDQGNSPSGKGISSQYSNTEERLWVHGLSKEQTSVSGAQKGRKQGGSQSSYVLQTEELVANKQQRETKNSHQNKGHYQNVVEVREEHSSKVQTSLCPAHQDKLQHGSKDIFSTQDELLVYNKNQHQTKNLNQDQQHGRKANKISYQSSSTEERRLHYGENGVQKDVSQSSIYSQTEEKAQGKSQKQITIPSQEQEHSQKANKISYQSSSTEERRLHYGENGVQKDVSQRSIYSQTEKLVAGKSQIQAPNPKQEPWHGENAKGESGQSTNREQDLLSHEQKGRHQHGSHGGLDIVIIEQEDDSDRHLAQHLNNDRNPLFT"}, "[2]": {"biological_target": "semenogelin II (UniProt Q02383)", "sequence (Q02383 24-582)": "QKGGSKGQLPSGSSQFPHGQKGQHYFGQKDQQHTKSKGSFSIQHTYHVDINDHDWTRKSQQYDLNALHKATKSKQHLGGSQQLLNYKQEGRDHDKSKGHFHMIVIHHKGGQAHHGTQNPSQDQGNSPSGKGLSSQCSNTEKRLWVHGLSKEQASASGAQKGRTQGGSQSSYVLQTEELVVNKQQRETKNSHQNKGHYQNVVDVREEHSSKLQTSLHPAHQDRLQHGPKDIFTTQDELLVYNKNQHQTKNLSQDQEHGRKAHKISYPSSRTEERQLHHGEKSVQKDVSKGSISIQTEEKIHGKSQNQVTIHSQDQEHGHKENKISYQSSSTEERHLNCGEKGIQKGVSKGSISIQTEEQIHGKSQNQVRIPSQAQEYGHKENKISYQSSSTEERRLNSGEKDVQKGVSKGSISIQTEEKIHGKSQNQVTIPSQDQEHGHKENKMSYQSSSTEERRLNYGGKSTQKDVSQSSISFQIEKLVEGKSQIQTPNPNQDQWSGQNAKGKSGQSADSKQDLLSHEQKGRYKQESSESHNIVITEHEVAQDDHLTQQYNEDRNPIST"}}, "data": [{"substance": "human glandular kallikrein 2", "values": [{"measurement": "number of cleavage sites sequenced (cleavage sites)", "setting": "[1]", "result": 4}, {"measurement": "proteolytic cleavage (fragments by HPLC)", "setting": "[1]", "result": "Cleavage of either Sg I or Sg II with hK2 results in generation of a multitude of peptides"}, {"measurement": "number of cleavage sites sequenced (cleavage sites)", "setting": "[2]", "result": 7}, {"measurement": "proteolytic cleavage (fragments by HPLC)", "setting": "[2]", "result": "Cleavage of either Sg I or Sg II with hK2 results in generation of a multitude of peptides"}]}]}
